Values belong to the molecule of their own block, whether it stands above or below them.
Key:
[1] = tested on: neural and cement gland marker gene expression; experiment: Xenopus animal (blastula) cap explants / Keller sandwiches from RNA-injected embryos, RT-PCR of marker genes; assay type: cell-based
Procedure: cDNAs encoding full-length Xenopus hedgehogs, or encoding amino terminal or carboxy terminal domains linked to secretory leader sequences were transcribed in vitro to yield translatable messenger RNA. The synthetic messenger RNAs, and control mRNAs, were microinjected into the animal poles of cleavage stage Xenopus embryos, which were allowed to develop to the blastula stage, at which time the animal cap explants were prepared from the upper one fourth of the embryo. These blastula cap explants were then cultured in vitro in physiological saline in the presence or absence of the transforming growth factor beta family member, recombinant human activin A. All explants were allowed to develop until control embryos had grown to neurula stage, or to tadpole stage. Importantly, blastula caps left untreated differentiate from ectoderm into atypical epidermis. Blastula caps treated with activin differentiate into mesodermal and neural cell types. Thus, the question was whether hedgehog, or its proteolytic derivatives, would change the differentiation of cells away from becoming epidermis, and into another cell type. A second question was whether hedgehog can work with activin to alter the normal response of the tissue to either factor by itself.
Explants were then extracted to yield mRNA by methods commonly used by those of skill in the art, which was used as template with reverse transcriptase to yield cDNA. The cDNA was then used as template with various sets of primers for PCR for specific genes, reverse-trahscriptase-polymerase chain reaction, or RT-PCR. […] Thus, the darker bands correspond to a greater level of the specific mRNA.
(A) Isolation of dorsal explants from injected embryos for the preparation of Keller sandwiches (Keller and Danilchik, 1988; Doniach, et al, 1992; redrawn from Doniach, 1993). (B) Keller sandwiches were made from uninjected (lanes 1 and 2) and X-bhh-injected (lanes 3 and 4) embroys, total RNA was isolated when control embryos reached stage 20, and RT-PCR was used to analyze the expression of XAG-1 and neural markers. XAG-1 is a cement gland marker, XANF-2 is an anterior pituitary marker, Otx-A is a forebrain marker, En-2 demarcates the midbrain-hindbrain boundary, Krox-20 marks rhombomeres 3 and 5 of the hindbrain and X/Hbox-6 is a spinal cord marker. N-CAM is a general neural marker whose expression is not restricted along the anteroposterior axis. […] Note that expression of XAG-1 and anterior neural markers is stimulated by X-bhh treatment, whereas expression of posterior neural markers is suppressed.

[2] = Solubility and proteolytic stability of purified Hh carboxy-terminal fragments; assay type: physicochemical; details: purified protein
Procedure: Protein expression and purification: Drosophila melanogaster Hh protein in which most of the amino-terminai signaling domain and signal sequence have been replaced by a hexa-histidine tag (His6Hh-C25) was expressed as previously described (Porter et al., 1995). SeMet His6Hh-C25 was prepared by expression in E. coli strain B834 (DE3) pLysS, a methionine auxotroph, and growth in minimal media as previously described (Leahy et al., 1994). This His6-taggcd protein was purified on a Ni^++-NTA agarose column and autocleavage stimulated by addition of 50 mM DTT. After removal of the DTT by dialysis, the cleaved protein was passed over a Ni^++-NTA agarose column and the Hh carboxy-terminal domain, Hh-C25, collected in the column run through. Hh-C25 was subjected to limited proteolysis by overnight incubation with 1:500 (w:w) subtilisin (Boehringer Mannheim) at 4° C. A protease-stable fragment of approximately 17 kDa, Hh-C17, was identified by SDS-PAGE and purified by anion-exchange chromatography utilizing a Mono-Q column (Pharmacia). The amino- and carboxy-terminal residues of Hh-C17 were determined to be Cys-258 and Ser-408, respectively, by mass spectral analysis of cyanogen bromide-cleaved fragments. Mass spectral analysis was performed as previously described (Porter et al., 1996a).
Drosophila melanogaster Hh in which the signal sequence and most of the amino-terminal signaling domain have been replaced by a hexahistidine tag was expressed in E. coli as previously described (Porter et al., 1995). Following purification with Ni^++-NTA agarose, this protein cleaves itself in vitro in the presence of either DTT or cholesterol to liberate the 25 kDa Hh-C fragment (Hh-C25, residues Cys-258 to Asp-471). […] All residues absolutely conserved in Hh-C homologues (Porter et al., 1996a), including the nematode sequences, are contained in Hh-C17. To determine if Hh-C17 retained autoprocessing activity, a mutant version of His-tagged Hh-C containing a termination codon at residue position 409 (His6Hh-C17) was expressed and assayed for autocleavage in the presence of DTT and cholesterol.

[3] = molecular target: T1, in-vitro translated Hh protein (Drosophila melanogaster, UniProt Q02936); experiment: Proteinase inhibitor studies on auto-proteolysis of in vitro translated Hh protein; assay type: biochemical; details: inhibitor added to translation reaction
T1 construct: The full length form of the hh protein (F) migrates with a mobility corresponding to a relative molecular mass of 46 kD; made in house; host or cells: cell-free: TNT coupled transcription-translation system (Promega)
T1 sequence (Q02936 1-471): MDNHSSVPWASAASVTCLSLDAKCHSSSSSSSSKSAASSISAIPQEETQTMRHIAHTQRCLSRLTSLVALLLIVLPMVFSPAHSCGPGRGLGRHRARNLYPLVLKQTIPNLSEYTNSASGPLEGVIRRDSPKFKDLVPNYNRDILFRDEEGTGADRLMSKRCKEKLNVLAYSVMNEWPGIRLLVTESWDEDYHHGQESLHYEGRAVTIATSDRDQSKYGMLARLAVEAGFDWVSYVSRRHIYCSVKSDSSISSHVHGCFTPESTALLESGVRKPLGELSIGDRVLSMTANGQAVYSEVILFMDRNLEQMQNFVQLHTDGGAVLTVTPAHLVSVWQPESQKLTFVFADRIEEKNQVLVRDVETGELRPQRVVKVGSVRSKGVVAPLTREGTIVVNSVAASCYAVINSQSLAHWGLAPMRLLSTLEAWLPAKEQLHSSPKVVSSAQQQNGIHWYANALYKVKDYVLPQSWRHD
Procedure: In some cases the effectiveness of an inhibitor was assayed by determining if addition of an inhibitor to a completed translation reaction will inhibit the self-processing that normally continues to occur.

auto-proteolysis = experiment: In vitro translation of wild-type and mutant Hh proteins (mapping of auto-proteolysis); assay type: biochemical, Drosophila; zebrafish

Molecule: prolactin [reference compound]
Induction of pituitary gene XANF1B [1]: does not lead to this elevated level of pituitary gene

Molecule: Hh-C17: ~17 kDa subtilisin-stable fragment of Hh-C25, residues Cys-258 to Ser-408
Solubility [2]: improved solubility | Stability to proteolysis [2]: protease-stable

Inhibition of auto-proteolysis of in-vitro translated Hh protein [3]: do not block
Molecule: a, anti-trypsin: proteinase inhibitor, probably α1-antitrypsin

Inhibition of auto-proteolysis of in-vitro translated Hh protein [3]: do not block
Molecule: CC(C)C[C@H](NC(=O)[C@H]1O[C@@H]1C(=O)O)C(=O)NCCCCN=C(N)N [E-64]

Molecule: CC(=O)N[C@@H](CC(C)C)C(=O)N[C@@H](CC(C)C)C(=O)N[C@H](C=O)CCCNC(=N)N [leupeptin]
Inhibition of auto-proteolysis of in-vitro translated Hh protein [3]: do not block

B1: H270A: zebrafish shh protein with H270A mutation (protein, UniProt Q92008 24-418, looked up, variant H270A)
Sonic hedgehog protein: CGPGRGYGRRRHPKKLTPLAYKQFIPNVAEKTLGASGRYEGKITRNSERFKELTPNYNPDIIFKDEENTGADRLMTQRCKDKLNSLAISVMNHWPGVKLRVTEGWDEDGHHFEESLHYEGRAVDITTSDRDKSKYGTLSRLAVEAGFDWVYYESKAHIHCSVKAENSVAAKSGGCFPGSALVSLQDGGQKAVKDLNPGDKVLAADSAGNLVFSDFIMFTDRDSTTRRVFYVIETQEPVEKITLTAAALLFVLDNSTEDLHTMTAAYASSVRAGQKVMVVDDSGQLKSVIVQRIYTEEQRGSFAPVTAHGTIVVDRILASCYAVIEDQGLAHLAFAPARLYYYVSSFLFPQNSSSRSNATLQQEGVHWYSRLLYQMGTWLLDSNMLHPLGMSVNSS
Auto-proteolysis (processing) of in vitro translated protein (auto-proteolysis): blocked

B2: noggin: independent neural inducer (protein, UniProt P49011 20-222, looked up)
Noggin: RIDQGGCQHYLHIRPAPSENLPLVDLIEHPDPIYDPKEKDLNETLLRTLMVGHFDPNFMATILPEERLGVEDLGELDLLLRQKPSGAMPAEIKGLEFYEGLQSKKHRLSKKLRRKLQMWLWSQTFCPVLYTWNDLGTRFWPRYVKVGSCYSKRSCSVPEGMVCKAAKSMHLTILRWRCQRRVQQKCAWITIQYPVISECKCSC
Induction of general neural gene NCAM [1]: induces the general neural gene, NCAM | Induction of pituitary gene XANF1B [1]: able to induce pituitary gene and forebrain gene

B3: activin: recombinant human activin A, transforming growth factor beta family member (protein, UniProt P08476 311-426, looked up)
Inhibin beta A chain: GLECDGKVNICCKKQFFVSFKDIGWNDWIIAPSGYHANYCEGECPSHIAGTSGSSLSFHSTVINHYRMRGHSPFANLKSCCVPTKLRPMSMLYYDDGQNIIKKDIQNMIVEECGCS
Induction of pituitary gene XANF1B [1]: also express the pituitary gene

B4: Hh-C25: 25 kDa Drosophila Hh-C fragment, residues Cys-258 to Asp-471 (protein)
chain: CFTPESTALLESGVRKPLGELSIGDRVLSMTANGQAVYSEVILFMDRNLEQMQNFVQLHTDGGAVLTVTPAHLVSVWQPESQKLTFVFADRIEEKNQVLVRDVETGELRPQRVVKVGSVRSKGVVAPLTREGTIVVNSVAASCYAVINSQSLAHWGLAPMRLLSTLEAWLPAKEQLHSSPKVVSSAQQQNGIHWYANALYKVKDYVLPQSWRHD
Solubility [2]: poorly soluble in the absence of detergents | Stability to proteolysis [2]: susceptible to further proteolytic breakdown when concentrated to 1 mg/ml or greater

Inhibition of auto-proteolysis of in-vitro translated Hh protein [3]: do not block
B5: soybean trypsin inhibitor: proteinase inhibitor (protein, UniProt P01070 25-205, looked up)
Trypsin inhibitor A: DFVLDNEGNPLENGGTYYILSDITAFGGIRAAPTGNERCPLTVVQSRNELDKGIGTIISSPYRIRFIAEGHPLSLKFDSFAVIMLCVGIPTEWSVVEDLPEGPAVKIGENKDAMDGWFRLERVSDDEFNNYKLVFCPQQAEDDKCGDIGISIDHDDGTRRLVVSKNKPLVVQFQKLDKESL

B6: H273A: zebrafish twhh protein with H273A mutation (protein, UniProt Q90419 27-416, looked up, variant H273A)
Tiggy-winkle hedgehog protein: CGPGRGYGKRRHPKKLTPLAYKQFIPNVAEKTLGASGKYEGKITRNSERFKELIPNYNPDIIFKDEENTNADRLMTKRCKDKLNSLAISVMNHWPGVKLRVTEGWDEDGHHLEESLHYEGRAVDITTSDRDKSKYGMLSRLAVEAGFDWVYYESKAHIHCSVKAENSVAAKSGGCFPGSGTVTLGDGTRKPIKDLKVGDRVLAADEKGNVLISDFIMFIDHDPTTRRQFIVIETSEPFTKLTLTAAALVFVGNSSAASGITATFASNVKPGDTVLVWEDTCESLKSVTVKRIYTEEHEGSFAPVTAHGTIIVDQVLASCYAVIENHKWAHWAFAPVRLCHKLMTWLFPARESNVNFQEDGIHWYSNMLFHIGSWLLDRDSFHPLGILHLS
Auto-proteolysis (processing) of in vitro translated protein (auto-proteolysis): blocked
